Reference: patent publication US20220331426A1, “METHODS OF TREATING CANCER USING TIGIT INHIBITORS AND ANTI-CANCER AGENTS” (Genentech, Inc., priority 2014, published 2022)
Values belong to the molecule of their own block, whether it stands above or below them.

Target: T1, human TIGIT (Homo sapiens, UniProt Q495A1)
T1 sequence (Q495A1 22-244): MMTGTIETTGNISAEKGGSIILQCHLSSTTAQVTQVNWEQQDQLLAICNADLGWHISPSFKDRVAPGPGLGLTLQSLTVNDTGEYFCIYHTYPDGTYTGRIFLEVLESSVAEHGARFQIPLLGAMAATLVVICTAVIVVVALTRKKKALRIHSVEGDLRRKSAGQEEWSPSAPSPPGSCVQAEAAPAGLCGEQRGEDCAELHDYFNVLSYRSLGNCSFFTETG
Experiment: binding of anti-TIGIT antibodies to human TIGIT
Conditions: hamster-anti-mouse anti-TIGIT antibodies; qualitative statement, no method given

specific binding to human TIGIT: specifically bound
B1: 10A7: hamster-anti-mouse anti-TIGIT antibody; light chain SEQ ID NO:13, heavy chain SEQ ID NO:15 (antibody, V domains shown)
VH: EVQLVESGGGLTQPGKSLKLSCEASGFTFSSFTMHWVRQSPGKGLEWVAFIRSGSGIVFYADAVRGRFTISRDNAKNLLFLQMNDLKSEDTAMYYCARRPLGHNTFDSWGQGTLVTVSS
VL: DIVMTQSPSSLAVSPGEKVTMTCKSSQSLYYSGVKENLLAWYQQKPGQSPKLLIYYASIRFTGVPDRFTGSGSGTDYTLTITSVQAEDMGQYFCQQGINNPLTFGDGTKLEIKR

specific binding to human TIGIT: specifically bound
B2: 1F4: hamster-anti-mouse anti-TIGIT antibody; light chain SEQ ID NO:14, heavy chain SEQ ID NO:16 (antibody, V domains shown)
VH: EVQLQQSGPELVKPGTSMKISCKASGYSFTGHLMNWVKQSHGKNLEWIGLIIPYNGGTSYNQKFKGKATLTVDKSSSTAYMELLSLTSDDSAVYFCSRGLRGFYAMDYWGQGTSVTVSS
VL: DVVLTQTPLSLSVSFGDQVSISCRSSQSLVNSYGNTFLSWYLHKPGQSPQLLIFGISNRFSGVPDRFSGSGSGTDFTLKISTIKPEDLGMYYCLQGTHQPPTFGPGTKLEVK
